According to patent US11643670B2, “Methods of enhancing chromosomal homologous recombination” (Massachusetts Institute of Technology, priority 2018, dated 2023):

Assays:
Chd2 locus [1] = assay: Chd2^R1684H knock-in by pronuclear injection of Cas9/crRNA/tracrRNA and ssODN, genotyping of cultured embryos; format: cell-based, mouse
Protocol: (§1) tracrRNA, crRNAs, and ssODNs were synthesized by Integrated DNA Technologies (TABLE 1). All injection mixtures were prepared in a final volume of 50 μL according to the following methodology: Using RNase-free water, reagents, and consumables, crRNA (final concentration 0.61 μM), tracrRNA (final concentration 0.61 μM), and ultrapure Tris-HCl, pH 7.39 (final concentration 10 mM, ThermoFisher) were mixed and incubated at 95° C. for 5 minutes. The mixtures were cooled to room temperature for 10 minutes on the benchtop, and then, EnGen Cas9-NLS S. pyogenes (New England Biolabs) was added to a final concentration of 30 ng/μL. The mixtures were incubated at 37° C. for 15 minutes before adding any remaining components: ssODN (final concentration 3 ng/μL or 30 ng/μL), RAD51 (Creative Biomart, final concentration 10 ng/μL). Injection mixtures were stored on ice and briefly heated to 37° C. prior to injection. For experiments utilizing RS-1, embryos were cultured in KSOM-AA (EMD Millipore MR-121-D) with […] RS-1 (Sigma) dissolved in DMSO or DMSO (Sigma, 1:1000) for 24 hours, washed, and cultured in EmbryoMax FHM HEPES Buffered Medium (Sigma) until collection for genotyping.
(§2) Female mice (4-5 weeks old, C57BL/6N) were superovulated by IP injection of PMS (5 IU/mouse, three days prior to microinjection) and hCG (5 IU/mouse, 47 hours after PMS injection) and then paired with males. […]

Chd2 locus [2] = assay: Chd2^R1684H knock-in by PNI/CPI with RAD51, genotyping of F0 pups; format: in vivo, mouse; settings: 18 F0 pups, PNI and CPI, RAD51 protein 10 ng/μL
Protocol: as §1, §2

B1: RAD51: recombinant human strand exchange protein RAD51 (Creative Biomart RAD51-134H), transcript variant 4 (protein, UniProt Q06609 2-339, looked up)
DNA repair protein RAD51 …: AMQMQLEANADTSVEEESFGPQPISRLEQCGINANDVKKLEEAGFHTVEAVAYAPKKELINIKGISEAKADKILAEAAKLVPMGFTTATEFHQRRSEIIQITTGSKELDKLLQGGIETGSITEMFGEFRTGKTQICHTLAVTCQLPIDRGGGEGKAMYIDTEGTFRPERLLAVAERYGLSGSDVLDNVAYARAFNTDHQTQLLYQASAMMVESRYALLIVDSATALYRTDYSGRGELSARQMHLARFLRMLLRLADEFGVAVVITNQVVAQVDGAAMFAADPKKPIGGNIIAHASTTRLYLRKGRGETRICKIYDSPCLPEAEAMFAINADGVGDAKD
homozygous KI rate relative to injection without RAD51 (Chd2 locus [1]): more than doubled | homozygous KI efficiency (Chd2 locus [2]): 55.5% | overall KI efficiency (pups with ≥1 KI allele/total pups) (Chd2 locus [2]): 61.1%
